Laboratory results taken from US20180030127A1 (APRILBIO, published 2018).

Experiments:
CD16a = CD16a (UniProt P08637 17-208); assay: ELISA, soluble Fab, antigen coated at 5 µg/ml
rabbit serum albumin = target: T1, rabbit serum albumin (rabbit, UniProt P49065 25-608); assay: ELISA, soluble Fab, antigen coated at 5 µg/ml
T1 construct: also called rabbit SA

[1] = target: T2, epidermal growth factor receptor (UniProt P00533 25-645); assay: ELISA, soluble Fab, antigen coated at 5 µg/ml
T2 construct: also called EGFR

c-MET = c-MET (UniProt P08581 25-932, limits assumed); assay: ELISA, soluble Fab, antigen coated at 5 µg/ml
IL-15 receptor a = target: T3, IL-15 receptor a (UniProt Q13261 31-205); assay: ELISA, soluble Fab, antigen coated at 5 µg/ml
T3 construct: also called IL-15Ra

[2] = target: T4, epithelial cell adhesion molecule (UniProt P16422 24-265); assay: ELISA, soluble Fab, antigen coated at 5 µg/ml
T4 construct: also called EpCAM
T4 sequence (looked up): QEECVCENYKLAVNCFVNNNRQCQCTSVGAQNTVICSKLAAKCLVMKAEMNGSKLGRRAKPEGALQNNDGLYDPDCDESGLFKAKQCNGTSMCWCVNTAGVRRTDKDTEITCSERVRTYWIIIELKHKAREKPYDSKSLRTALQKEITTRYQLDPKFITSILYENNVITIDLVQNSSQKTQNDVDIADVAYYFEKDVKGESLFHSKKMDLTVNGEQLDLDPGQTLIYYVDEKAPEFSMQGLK

IL-1b = target: T5, IL-1b (UniProt P01584 117-269, limits assumed); assay: ELISA, soluble Fab, antigen coated at 5 µg/ml
T5 construct: The identity is uncertain because the two printings differ

[3] = target: T6, cynomolgus monkey serum albumin (cynomolgus monkey, UniProt A2V9Z4 25-608); assay: ELISA, soluble Fab, antigen coated at 5 µg/ml
T6 construct: also called cynomolgus monkey SA; monkey SA

human serum albumin [4] = target: T7, human serum albumin (human, UniProt P02768 25-609); assay: ELISA, purified soluble Fab on coated HSA, pH 6; human SA, pH 6
T7 construct: Bought protein; also called HSA; human SA
Experimental: For the monoclonal phage ELISA, the recombinant phage was obtained from positive E. coli clones by phage rescue, and ˜10⁸ CFU/well were added to MaxiSorb ELISA plates (Nunc, Roskilde, Denmark) that were coated with 5 μg/ml HSA, RSA, MSA or BSA. The phage was allowed to bind to the antigens either at pH 6 or at pH 7.4 for 1 h at 37° C. A goat anti-human kappa L Ab-conjugated with HRPO (Sigma-Aldrich) was used as a secondary antibody. The binding signals were visualized with a TMB substrate (BD Science, San Jose, Calif., USA), and the absorbance at 450 nm was measured using an ELISA reader (Bio-Rad, Hercules, Calif., USA). The data represent the average of three experiments standard deviation. For the conventional ELISA, the various antigens [human SA, rat SA, mouse SA, monkey SA (Alpha diagnositic Intl., San Antonio, Tex., USA), canine SA (CUSABIO, Wuhan, Hubei, China). rabbit SA (Sigma-Aldrich), epidermal growth factor receptor (EGFR) (R&D systems, Minneapolis, Minn., USA), epithelial cell adhesion molecule (EpCAM) (R&D systems), IL-15 receptor a (IL-15Ra) (R&D systems), IL-10 (eBioscience, San Diego, Calif., USA), CD16a (R&D systems), c-MET (Sinobiological, Beijing, China)] at 5 μg/ml concentrations were immobilized on the microtiter plates, and the Fab molecules were allowed to bind to the antigens, and detected as above. […]

human serum albumin [5] = target: T7, human serum albumin; assay: biolayer interferometry (Octet RED), SL335 on AR2G biosensor, HSA in solution, pH 7.4
Experimental: Real-time binding assays between the purified SL335 and the antigens (human SA, rat SA or mouse SA) were performed using biolayer interferometry with an Octet RED system (ForteBio, Menlo park, Calif., USA) as previously described except that AR2G (Amine Reactive Second-Generation) sensors were used (Costin et al., (2013) J Virol. 87, 52-66). Briefly, the predetermined concentration of SL335 was coupled to kinetics grade AR2G biosensors, and unbound Fab fragments were removed from the surfaces of the sensors by incubating in the kinetics buffer […]. […] The binding and dissociation kinetics were calculated using the Octet QK software package, which fit the observed binding curves to a 1:1 binding model to calculate the association rate constants. The association and dissociation rate constants were calculated using at least three different concentrations of human SA, rat SA or mouse SA. The equilibrium dissociation constants were calculated as the kinetic dissociation rate constant divided by the kinetic association rate constant.
Since SL335 was the best binder among four anti-human SA Fab clones, its cross-reactivity was further analyzed by ELISA. […] The binding affinities of SL335 to human SA, rat SA and mouse SA at pH 6 or pH 7.4 were further measured via biolayer interferometry by passing through different concentration of the antigens on biosensors that were coated with SL335 (see Table 6 below).

T6 sequence (A2V9Z4 25-608 limits assumed): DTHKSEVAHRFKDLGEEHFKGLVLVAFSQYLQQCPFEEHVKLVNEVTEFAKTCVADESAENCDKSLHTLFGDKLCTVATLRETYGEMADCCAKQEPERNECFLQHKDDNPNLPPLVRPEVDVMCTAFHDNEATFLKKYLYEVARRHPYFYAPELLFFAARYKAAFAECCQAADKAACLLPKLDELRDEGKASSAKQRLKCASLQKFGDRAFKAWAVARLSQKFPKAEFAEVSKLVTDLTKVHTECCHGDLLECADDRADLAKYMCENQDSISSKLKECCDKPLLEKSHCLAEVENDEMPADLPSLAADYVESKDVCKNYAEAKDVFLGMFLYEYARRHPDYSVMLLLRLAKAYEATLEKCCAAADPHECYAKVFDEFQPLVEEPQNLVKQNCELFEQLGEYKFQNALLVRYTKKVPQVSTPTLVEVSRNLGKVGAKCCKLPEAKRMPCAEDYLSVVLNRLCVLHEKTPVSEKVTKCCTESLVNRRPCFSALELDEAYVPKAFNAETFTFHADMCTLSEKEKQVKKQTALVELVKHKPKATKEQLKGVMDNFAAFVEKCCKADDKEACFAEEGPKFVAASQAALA
CD16a, sequence (P08637 17-208 limits assumed): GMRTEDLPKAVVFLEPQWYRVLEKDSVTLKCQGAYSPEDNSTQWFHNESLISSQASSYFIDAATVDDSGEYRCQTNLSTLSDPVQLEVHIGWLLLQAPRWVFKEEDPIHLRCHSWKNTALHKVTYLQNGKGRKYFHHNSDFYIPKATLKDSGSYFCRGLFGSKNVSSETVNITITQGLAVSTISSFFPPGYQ
T1 sequence (P49065 25-608 limits assumed): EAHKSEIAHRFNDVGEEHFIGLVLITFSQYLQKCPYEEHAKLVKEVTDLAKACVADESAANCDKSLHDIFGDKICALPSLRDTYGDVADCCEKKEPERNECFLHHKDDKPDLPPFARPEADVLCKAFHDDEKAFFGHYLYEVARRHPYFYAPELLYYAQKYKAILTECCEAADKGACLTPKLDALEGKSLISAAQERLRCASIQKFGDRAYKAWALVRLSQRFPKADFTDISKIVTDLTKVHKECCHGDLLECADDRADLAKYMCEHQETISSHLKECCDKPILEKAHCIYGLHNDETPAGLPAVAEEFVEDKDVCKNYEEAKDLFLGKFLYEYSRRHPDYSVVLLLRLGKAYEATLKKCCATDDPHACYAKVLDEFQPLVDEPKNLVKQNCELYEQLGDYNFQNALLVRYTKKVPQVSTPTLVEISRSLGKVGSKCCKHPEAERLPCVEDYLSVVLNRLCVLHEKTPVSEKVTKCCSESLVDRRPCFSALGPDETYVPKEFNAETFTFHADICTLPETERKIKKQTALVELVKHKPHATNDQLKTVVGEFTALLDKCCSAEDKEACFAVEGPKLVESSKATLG
T3 sequence (Q13261 31-205 limits assumed): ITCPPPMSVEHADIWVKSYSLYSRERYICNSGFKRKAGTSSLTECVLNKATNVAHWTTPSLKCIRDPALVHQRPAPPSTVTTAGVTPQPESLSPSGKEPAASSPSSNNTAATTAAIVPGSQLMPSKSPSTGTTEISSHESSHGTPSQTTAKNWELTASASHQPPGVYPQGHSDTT
c-MET, sequence (P08581 25-932 limits assumed): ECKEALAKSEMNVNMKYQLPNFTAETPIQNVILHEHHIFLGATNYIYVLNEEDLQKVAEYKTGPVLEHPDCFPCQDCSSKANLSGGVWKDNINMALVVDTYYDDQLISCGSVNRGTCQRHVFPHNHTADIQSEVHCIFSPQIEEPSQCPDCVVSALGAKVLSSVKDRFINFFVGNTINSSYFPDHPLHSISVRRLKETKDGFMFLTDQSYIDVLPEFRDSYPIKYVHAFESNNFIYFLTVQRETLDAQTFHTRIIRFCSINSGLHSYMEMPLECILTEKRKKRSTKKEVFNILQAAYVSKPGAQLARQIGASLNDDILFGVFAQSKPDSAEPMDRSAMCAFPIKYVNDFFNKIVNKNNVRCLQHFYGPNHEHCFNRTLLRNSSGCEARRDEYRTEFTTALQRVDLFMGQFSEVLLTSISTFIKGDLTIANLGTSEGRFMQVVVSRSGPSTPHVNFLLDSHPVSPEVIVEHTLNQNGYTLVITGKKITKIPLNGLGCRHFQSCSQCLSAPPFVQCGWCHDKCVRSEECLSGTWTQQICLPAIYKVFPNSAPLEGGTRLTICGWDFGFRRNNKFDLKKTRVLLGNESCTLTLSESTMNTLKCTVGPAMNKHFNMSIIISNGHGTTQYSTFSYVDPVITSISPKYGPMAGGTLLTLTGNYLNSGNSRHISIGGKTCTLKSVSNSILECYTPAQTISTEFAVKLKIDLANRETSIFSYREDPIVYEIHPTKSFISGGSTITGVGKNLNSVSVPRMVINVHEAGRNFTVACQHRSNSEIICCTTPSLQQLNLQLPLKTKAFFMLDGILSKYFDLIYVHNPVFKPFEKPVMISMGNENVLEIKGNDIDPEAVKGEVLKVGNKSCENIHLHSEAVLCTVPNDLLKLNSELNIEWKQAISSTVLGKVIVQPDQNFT

B1: SL335 (Fab, V domains shown)
VH: QVQLVQSGGGPVKPGGSLRLSCAASGFMFRAYSMNWVRQAPGKGLEWVSSISSSGRYIHYADSVKGRFTISRDNAKNSLYLQMNSLRAEDTAVYYCARETVMAGKALDYWGQGTLVTVSS
VL: ELVLTQSPGTLSLSPGETATLSCRASQSVGSNLAWYQQKPGQAPRLLIYGASTGATGVPARFSGSRSGTDFTLTITSLQPEDFATYYCQQYYSFLAKTFGQGTQLEIKR
notes: Human anti-serum albumin Fab in the classic form (VH+CH1 with Cys233, VL+CLk with Cys214); tested on phage and as soluble Fab purified from E. coli; also called SL335wt; SL335 Fab
B1: no binding (CD16a); no binding (rabbit serum albumin); no binding [1]. B1: no binding (c-MET); no binding (IL-15 receptor a); no binding [2]. The binding result (IL-1b) was “no binding”, the binding result [3] was “binds” and the EC50 (human serum albumin [4]) was 0.02 µg/mL. The Kd (human serum albumin [5]) was 13 nM, the koff (human serum albumin [5]) was 0.00152 s⁻¹ and the kon (human serum albumin [5]) was 117000 M⁻¹ s⁻¹.
